From patent US20240117030A1 (Pfizer, published 2024)

T1: recombinant human IL-4 (human, UniProt P05112 25-153)
T1 sequence (looked up): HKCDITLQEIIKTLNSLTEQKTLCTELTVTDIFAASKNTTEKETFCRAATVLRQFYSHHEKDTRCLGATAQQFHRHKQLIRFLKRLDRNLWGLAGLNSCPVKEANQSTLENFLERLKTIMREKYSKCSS


Assays:
Test in all cases: cell-based or functional assay
recombinant human IL-13 [1] = molecular target: recombinant human IL-13 (human, UniProt P35225 35-146)
[2] = molecular target: recombinant human TSLP (glycosylated long form) (human, UniProt Q969D9 29-159)
recombinant human IL-13 [3] = molecular target: recombinant human IL-13 (human, UniProt P35225 35-146); remark: listed apart in the source
recombinant human IL-4 = molecular target: T1, recombinant human IL-4

Binder | IC50 (median), Monocyte CD23 expression (recombinant human IL-13 [1]) [pM] | IC50 (median), STAT6 phosphorylation in HT-29 cells (recombinant human IL-13 [1]) [pM] | a-TSLP TARC bioassay (IC50; pM) [2] [pM] | a-hIL-13 bioassay (IC50, pM) (recombinant human IL-13 [3]) [pM] | a-hIL-4 bioassay IC50, pM) (recombinant human IL-4) [pM]
IL13-1307 (antibody, human IgG1, kappa, V domains shown) VH: EVQLVESGGGLVQPGGSLRLSCAASGFTFSSYAMSWVRQAPGKGLEWVASISSGDTTYYPDSVKGRFTISRDNAKNSLYLQMNSLRAEDTAVYYCARLDGYYFGFPYWGQGTLVTVSS VL: DIQMTQSPSSLSASVGDRVTITCKASESVDHSGSSLMHWYQQKPGKAPKLLIYRASNLESGVPSRFSGSGSGTDFTLTISSLQPEDFATYYCQQSNEDPWTFGGGTKVEIKR | 306 | 140 | – | – | –
IL413TSLP-0002 (other) heavy: EVQLVESGGGLVQPGGSLRLSCAASGFTFSSYAMSWVRQAPGKGLEWVASISSGDTTYYPDSVKGRFTISRDNAKNSLYLQMNSLRAEDTAVYYCARNEGYYFGLTLWGQGTLVTVSSASTKGPSVFPKAPSSKSTSGGTAALGCLVKDYFPEPVTVSWNSGALTSGVHTFPAVLQSSGLYSLSSSVTVPSSSLGTQTYICNVNHKPSNTKVDKKVEPKSCDKTHTCPPCPAPEAAGAPSVFLFPPKPKDTLMISRTPEVTCVVVDVSHEDPEVKFNWYVDGVEVHNAKTKPREEQYNSTYRVVSVLTVLHQDWLNGKEYKCKVSNKALPAPIEKTISKAKGQPREPQVCTLPPSREEMTKNQVSLWCLVKGFYPSDIAVEWESNGQPENNYKTTPPVLDSDGSFFLYSKLTVDKSRWQQGNVFSCSVMHEALHNHYTQKSLSLSPGK chain 1: QMQLVESGGGVVQPGRSLRLSCAASGFTFRTYGMHWVRQAPGKGLEWVAVIWYDGSNKHYADSVKGRFTITRDNSKNTLNLQMNSLRAEDTAVYYCARAPQWELVHEAFDIWGQGTMVTVSSGQPKAAPSVTLFPPSSEELQANKATLVCLISDFYPGAVTVAWKADSSPVKAGVETTTPSKQSNNKYAASSYLSLTPEQWKSHRSYSCQVTHEGSTVEKTVAPTECSGGGGSEVTLRESGPALVKPTQTLTLTCTFSGFSLSNFGEGLSWIRQPPGKGLEWLAHIYWDDDKRYNPSLKSRLTISKDTSRNQVVLTMTNMDPVDTATYYCARRETVFYWYFDVWGQGTTVTVSSASTKGPSVFPEAPSSKSTSGGTAALGCLVKDYFPEPVTVSWNSGALTSGVHTFPAVLQSSGLYSLGSVVTVPSSSLGTQTYICNVNHKPSNTKVDKKVEPKSCDKTHTCPPCPAPEAAGAPSVFLFPPKPKDTLMISRTPEVTCVVVDVSHEDPEVKFNWYVDGVEVHNAKTKPREEQYNSTYRVVSVLTVLHQDWLNGKEYKCKVSNKALPAPIEKTISKAKGQPREPQVYTLPPCREEMTKNQVSLSCAVKGFYPSDIAVEWESNGQPENNYKTTPPVLDSDGSFFLVSKLTVDKSRWQQGNVFSCSVMHEALHNHYTQKSLSLSPGK light 1: DIQMTQSPSSLSASVGDRVTITCKASESVDHFGWSLVHWYQQKPGKAPKLLIYRASNLESGVPSRFSGSGSGTDFTLTISSLQPEDFATYYCQQSNEDPWTFGGGTKVEIKRTVAAPSVFIFPPSDEQLKSGTASVSCLLNNFYPREAKVQWKVDNALQSGNSQESVTEQDSKDSTYSLDSTLTLSKADYEKHKVYACEVTHQGLSSPVTKSFNRGEC light 2: DIQMTQSPSSLSASVGDRVTITCKASQSVDEDGDSYMNWYQQKPGKAPKLLIYAASNLESGVPSRFSGSGSGTDFTLTISSLQPEDFATYYCQQSNEDPPTFGGGTKVEIKRTVAAPSVFIFPPSDEQLKSGTASVSCLLNNFYPREAKVQWKVDNALQSGNSQESVTEQDSKDSTYSLKSTLTLSKADYEKHKVYACEVTHQGLSSPVTKSFNRGEC chain 2: SYVLTQPPSVSVAPGQTARITCGGNNLGSKSVHWYQQKPGQAPVLVVYDDSDRPSWIPERFSGSNSGNTATLTISRGEAGDEADYYCQVWDSSSDHVVFGGGTKLTVLASTKGPSVFPLAPSSKSTSGGTAALGCLVKDYFPEPVTVSWNSGALTSGVHTFPAVLQSSGLYSLSSVVTVPSSSLGTQTYICNVNHKPSNTKVDKKVEPKSC | – | – | 16.4 | 10.6 | 8.59

Further lines, results first:

IC50 (median), Monocyte CD23 expression (recombinant human IL-13 [1]) [pM] | IC50 (median), STAT6 phosphorylation in HT-29 cells (recombinant human IL-13 [1]) [pM] | a-TSLP TARC bioassay (IC50; pM) [2] [pM] | a-hIL-13 bioassay (IC50, pM) (recombinant human IL-13 [3]) [pM] | a-hIL-4 bioassay IC50, pM) (recombinant human IL-4) [pM] | Binder
– | – | 11.7 | 46.8 | 7.09 | IL413TSLP-0007 (other) heavy: EVTLRESGPALVKPTQTLTLTCTFSGFSLSNFGEGLSWIRQPPGKGLEWLAHIYWDDDKRYNPSLKSRLTISKDTSRNQVVLTMTNMDPVDTATYYCARRETVFYWYFDVWGQGTTVTVSSASTKGPSVFPEAPSSKSTSGGTAALGCLVKDYFPEPVTVSWNSGALTSGVHTFPAVLQSSGLYSLGSVVTVPSSSLGTQTYICNVNHKPSNTKVDKKVEPKSCDKTHTCPPCPAPEAAGAPSVFLFPPKPKDTLMISRTPEVTCVVVDVSHEDPEVKFNWYVDGVEVHNAKTKPREEQYNSTYRVVSVLTVLHQDWLNGKEYKCKVSNKALPAPIEKTISKAKGQPREPQVYTLPPCREEMTKNQVSLSCAVKGFYPSDIAVEWESNGQPENNYKTTPPVLDSDGSFFLVSKLTVDKSRWQQGNVFSCSVMHEALHNHYTQKSLSLSPGK chain 1: SYVLTQPPSVSVAPGQTARITCGGNNLGSKSVHWYQQKPGQAPVLVVYDDSDRPSWIPERFSGSNSGNTATLTISRGEAGDEADYYCQVWDSSSDHVVFGGGTKLTVLASTKGPSVFPLAPSSKSTSGGTAALGCLVKDYFPEPVTVSWNSGALTSGVHTFPAVLQSSGLYSLSSVVTVPSSSLGTQTYICNVNHKPSNTKVDKKVEPKSCGGGGSEVQLVESGGGLVQPGGSLRLSCAASGFTFSSYAMSWVRQAPGKGLEWVASISSGDTTYYPDSVKGRFTISRDNAKNSLYLQMNSLRAEDTAVYYCARNEGYYFGLTLWGQGTLVTVSSASTKGPSVFPKAPSSKSTSGGTAALGCLVKDYFPEPVTVSWNSGALTSGVHTFPAVLQSSGLYSLSSSVTVPSSSLGTQTYICNVNHKPSNTKVDKKVEPKSCDKTHTCPPCPAPEAAGAPSVFLFPPKPKDTLMISRTPEVTCVVVDVSHEDPEVKFNWYVDGVEVHNAKTKPREEQYNSTYRVVSVLTVLHQDWLNGKEYKCKVSNKALPAPIEKTISKAKGQPREPQVCTLPPSREEMTKNQVSLWCLVKGFYPSDIAVEWESNGQPENNYKTTPPVLDSDGSFFLYSKLTVDKSRWQQGNVFSCSVMHEALHNHYTQKSLSLSPGK light 1: DIQMTQSPSSLSASVGDRVTITCKASQSVDEDGDSYMNWYQQKPGKAPKLLIYAASNLESGVPSRFSGSGSGTDFTLTISSLQPEDFATYYCQQSNEDPPTFGGGTKVEIKRTVAAPSVFIFPPSDEQLKSGTASVSCLLNNFYPREAKVQWKVDNALQSGNSQESVTEQDSKDSTYSLKSTLTLSKADYEKHKVYACEVTHQGLSSPVTKSFNRGEC light 2: DIQMTQSPSSLSASVGDRVTITCKASESVDHFGWSLVHWYQQKPGKAPKLLIYRASNLESGVPSRFSGSGSGTDFTLTISSLQPEDFATYYCQQSNEDPWTFGGGTKVEIKRTVAAPSVFIFPPSDEQLKSGTASVSCLLNNFYPREAKVQWKVDNALQSGNSQESVTEQDSKDSTYSLDSTLTLSKADYEKHKVYACEVTHQGLSSPVTKSFNRGEC chain 2: QMQLVESGGGVVQPGRSLRLSCAASGFTFRTYGMHWVRQAPGKGLEWVAVIWYDGSNKHYADSVKGRFTITRDNSKNTLNLQMNSLRAEDTAVYYCARAPQWELVHEAFDIWGQGTMVTVSSGQPKAAPSVTLFPPSSEELQANKATLVCLISDFYPGAVTVAWKADSSPVKAGVETTTPSKQSNNKYAASSYLSLTPEQWKSHRSYSCQVTHEGSTVEKTVAPTECS
– | – | 17.7 | 10.6 | 9.07 | IL413TSLP-0008 (other) heavy: EVQLVESGGGLVQPGGSLRLSCAASGFTFSSYAMSWVRQAPGKGLEWVASISSGDTTYYPDSVKGRFTISRDNAKNSLYLQMNSLRAEDTAVYYCARNEGYYFGLTLWGQGTLVTVSSASTKGPSVFPKAPSSKSTSGGTAALGCLVKDYFPEPVTVSWNSGALTSGVHTFPAVLQSSGLYSLSSSVTVPSSSLGTQTYICNVNHKPSNTKVDKKVEPKSCDKTHTCPPCPAPEAAGAPSVFLFPPKPKDTLMISRTPEVTCVVVDVSHEDPEVKFNWYVDGVEVHNAKTKPREEQYNSTYRVVSVLTVLHQDWLNGKEYKCKVSNKALPAPIEKTISKAKGQPREPQVCTLPPSREEMTKNQVSLWCLVKGFYPSDIAVEWESNGQPENNYKTTPPVLDSDGSFFLYSKLTVDKSRWQQGNVFSCSVMHEALHNHYTQKSLSLSPGK chain 1: SYVLTQPPSVSVAPGQTARITCGGNNLGSKSVHWYQQKPGQAPVLVVYDDSDRPSWIPERFSGSNSGNTATLTISRGEAGDEADYYCQVWDSSSDHVVFGGGTKLTVLASTKGPSVFPLAPSSKSTSGGTAALGCLVKDYFPEPVTVSWNSGALTSGVHTFPAVLQSSGLYSLSSVVTVPSSSLGTQTYICNVNHKPSNTKVDKKVEPKSCGGGGSEVTLRESGPALVKPTQTLTLTCTFSGFSLSNFGEGLSWIRQPPGKGLEWLAHIYWDDDKRYNPSLKSRLTISKDTSRNQVVLTMTNMDPVDTATYYCARRETVFYWYFDVWGQGTTVTVSSASTKGPSVFPEAPSSKSTSGGTAALGCLVKDYFPEPVTVSWNSGALTSGVHTFPAVLQSSGLYSLGSVVTVPSSSLGTQTYICNVNHKPSNTKVDKKVEPKSCDKTHTCPPCPAPEAAGAPSVFLFPPKPKDTLMISRTPEVTCVVVDVSHEDPEVKFNWYVDGVEVHNAKTKPREEQYNSTYRVVSVLTVLHQDWLNGKEYKCKVSNKALPAPIEKTISKAKGQPREPQVYTLPPCREEMTKNQVSLSCAVKGFYPSDIAVEWESNGQPENNYKTTPPVLDSDGSFFLVSKLTVDKSRWQQGNVFSCSVMHEALHNHYTQKSLSLSPGK light 1: DIQMTQSPSSLSASVGDRVTITCKASESVDHFGWSLVHWYQQKPGKAPKLLIYRASNLESGVPSRFSGSGSGTDFTLTISSLQPEDFATYYCQQSNEDPWTFGGGTKVEIKRTVAAPSVFIFPPSDEQLKSGTASVSCLLNNFYPREAKVQWKVDNALQSGNSQESVTEQDSKDSTYSLDSTLTLSKADYEKHKVYACEVTHQGLSSPVTKSFNRGEC light 2: DIQMTQSPSSLSASVGDRVTITCKASQSVDEDGDSYMNWYQQKPGKAPKLLIYAASNLESGVPSRFSGSGSGTDFTLTISSLQPEDFATYYCQQSNEDPPTFGGGTKVEIKRTVAAPSVFIFPPSDEQLKSGTASVSCLLNNFYPREAKVQWKVDNALQSGNSQESVTEQDSKDSTYSLKSTLTLSKADYEKHKVYACEVTHQGLSSPVTKSFNRGEC chain 2: QMQLVESGGGVVQPGRSLRLSCAASGFTFRTYGMHWVRQAPGKGLEWVAVIWYDGSNKHYADSVKGRFTITRDNSKNTLNLQMNSLRAEDTAVYYCARAPQWELVHEAFDIWGQGTMVTVSSGQPKAAPSVTLFPPSSEELQANKATLVCLISDFYPGAVTVAWKADSSPVKAGVETTTPSKQSNNKYAASSYLSLTPEQWKSHRSYSCQVTHEGSTVEKTVAPTECS
